# Results published in paper PMC9158119 (Frontiers in Immunology, 2022).
# Target: T1, SARS-CoV-2 original strain spike receptor-binding domain (S-RBD) (SARS-CoV-2, UniProt P0DTC2)
# Test: SPR
# Details: both partners purified
row,Binder,Kd [nM]
1,Nb-007 (VHH) VHH: QLQLVESGGGLVQAGGSMRLSCAASISFSSFPMGWHRQAPGKQRELVAKTGIGGTAYDDSVKGRFTISRDNTKNTVYLQMNSLKVEDTAVYYCWGWRMNDYWGQGTQVTVSS,0.0674

# Target: T1, SARS-CoV-2 original strain spike …
# Test: not given
# Details: not given
row,Binder,binding result
1,Nb-002 (VHH) VHH: EVQLVESGGALVQPGGSLRLSCAASGFTLDAAAIGWFRQAPGKEREWVSCINRVGGGFYSDSAKGRFTISRDNDKNTVYLQMNSLKFEDTAVYYCAADSDSPRFGCSDSRARYEYWGQGTQVTASS,binds
2,Nb-006 (VHH) VHH: QVQLVESGGGLVQAGESLRLSCAASGSTVSPYTMGWYRQAPGKQREWVATIRSDRSTNYADSVLGRFTISRDNAKNTVYLQMNSLKPEDTAVYQCYALQGGLLLGQGTQVTVSS,binds
3,Nb-001 (VHH) VHH: EVQLVESGGGLVQAGGSLRLSCAASGSIFRLYTIDWYRQAPGKQRELVATISGTSPTNYADSVKGRATISRDNAKNTVYLQINSLKPEDTAVYYCHTVSGNTWGQGTQVTVSS,binds
4,Nb-008 (VHH) VHH: EVQVVESGGGLVQAGGSLRLSCAASGSTSNLRVTGWYRQTPGKQRELVAAISNAGATVYPDSVAGRFTLSRDNAKNTVTLQINSLKPEDTAVYYCNARRFGRDYWGQGTQVTVSS,binds
5,Nb-004 (VHH) VHH: QLQLVESGGGLVQAGGSLGLSCAASGITLGDYRMGWYRQAPGKQRELVARFTNAGAILYGDSVKGRFTISMNNAKNTVYLQINSLKPEDTAVYYCNARTTRGIDNWGQGTQVTVSS,binds
6,Nb-005 (VHH) VHH: EVQLVESGGGLVQAGGSLRLSCAASGSAFNDYAMGWYRQAPGKQRELVARFTNVGATLSSNSVKGRFTISRDNAKNTVFLQMNSLKPEDTAVYYCHAGHRILLGREYWGQGTQVTVSS,binds
7,Nb-010 (VHH) VHH: EVQVVESGGGLVQAGGSLRLSCTASGSTFTRYPMGWYRQAPGKQRELVAGFTVVGATIYADSVKGRFALSRDNAKKTIDLQLDSLKPDDTGVYYCSMYTYWGQGTQVTVSS,binds
8,Nb-003 (VHH) VHH: EVQVVESGGGLVQAGGSLRVSCAASGSTSSRYIMAWYRQAPGKQRELVASITLVGATIYKDSVKGRFTISGDNAKKTVYLQMNNLKPEDTAVYYCNQIDPLIGGPGYWGQGIQVTVSS,binds
